This passage reports Kd results from publication PMC10833452 (2023).

Like-named read-outs stand apart in the source and are kept apart here.

What all share (test): SPR
Background: Surface plasmon resonance follows binding to a sensor surface in real time, without labels.

Assay [1] addresses WT-RBD.
For assay [2], the target named is WT-RBD. The source holds these as a separate data set.
The target in assay [3] is WT-RBD. This is another data set of the same source.

B1: 8H12 monoclonal antibody (mouse IgG) (antibody, V domains shown)
VH: EVKLEESGGGLVQPGGSMKLSCAASGFTFSDAWMDWVRQSPEKGLEWVAQIRRKANNHATYYAESVKGRFTISRDDSKSSVYLQMNSLRAEDTGIYYCIRGMTYAMDFWGQGTSVTVSS
VL: DIVMTQFQKFMSTSVGDRVSITCKASQNVRTAVAWYQQKPGQSPKAMIYLASNRHRGVPDRFTGSGCGTDFTLTISNVQCEDLADYFCLQHRNYPLTFGGGTKLEIK
Turning to B1, the results for the Kd with WT-RBD [1] and with WT-RBD [2] were 0.398 nM and 0.4 nM, respectively.

B2: 3E2 monoclonal antibody (mouse IgG) (antibody, V domains shown)
VH: EVMLVESGGGVVKPGGSLKLSCAASGFSFSTYAMSWIRQTPEKSLEWVAAISSGGTNTYYPGSVKGRFTISRDKAMNTLYLQLSSLRSEDTAMYYCVRHSGNYVDSVMDYWGQGTSVTVSS
VL: QIVLTQSPAIMSASLGEEITLTCSVSSSVSDMHWYQQKSGTSPKVFIYSTSNLASGVPSRFSGSGSGTFYSLTISSVEAEDAAYYYCHQWSSWTFGGGTKLEIK
Consider B2, for which the Kd with WT-RBD [3] amounted to 3.54 pM; with WT-RBD [2], 0.004 nM.

A word on the Kd: it is a measure of binding affinity in units of concentration. A lower Kd goes with higher affinity.
